The source of these data is patent US20170340735A1 (published 2017).

T1: human TIGIT on the cell surface (human, UniProt Q495A1 22-244)
T1 sequence: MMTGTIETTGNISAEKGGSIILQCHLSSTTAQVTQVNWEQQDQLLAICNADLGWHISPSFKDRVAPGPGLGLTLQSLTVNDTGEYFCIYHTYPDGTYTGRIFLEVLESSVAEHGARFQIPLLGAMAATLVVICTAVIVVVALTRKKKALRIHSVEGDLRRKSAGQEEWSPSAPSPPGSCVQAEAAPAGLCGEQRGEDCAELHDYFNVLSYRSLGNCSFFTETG

T2: human PVRL4-His (human, UniProt Q96NY8 32-349)
T2 construct: also called Nectin-4; not shown: His tag
T2 sequence (looked up): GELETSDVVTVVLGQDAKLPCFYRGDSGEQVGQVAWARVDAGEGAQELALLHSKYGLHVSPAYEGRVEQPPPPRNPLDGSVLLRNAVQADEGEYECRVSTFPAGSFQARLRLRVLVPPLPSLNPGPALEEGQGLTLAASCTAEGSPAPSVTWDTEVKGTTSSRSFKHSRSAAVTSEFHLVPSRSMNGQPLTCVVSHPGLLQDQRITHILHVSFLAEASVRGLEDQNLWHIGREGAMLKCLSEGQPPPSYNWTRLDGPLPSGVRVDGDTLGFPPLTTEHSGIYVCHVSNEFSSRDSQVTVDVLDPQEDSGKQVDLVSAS

T3: recombinant monomeric human TIGIT-His (human, UniProt Q495A1 22-141)
T3 construct: also called hTIGIT; not shown: His tag
T3 sequence: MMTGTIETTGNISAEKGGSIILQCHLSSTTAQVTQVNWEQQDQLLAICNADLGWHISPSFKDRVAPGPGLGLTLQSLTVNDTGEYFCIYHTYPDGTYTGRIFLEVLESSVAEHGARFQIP

B1: MAB18-IgG4 (antibody, V domains shown)
VH: QVQLVQSGAEVKKPGASVKVSCKASGYTFPAYYMHWVRQAPGQGLEWMGIINPSLGLTSYARKFQGRVTMTRDTSTSTVYMELSSLRSEDTAVYYCARGGRTTWIGAFDIWGQGTMVTVSS
VL: EIVMTQSPATLSVSPGERATLSCRASQSVSSNLAWYQQKPGQAPRLLIYGASTRATGIPARFSGSGSGTEFTLTISSLQSEDFAVYYCQQYVVWPPLTFGGGTKVEIKR
B2: MAB16-IgG4 (antibody, V domains shown)
VH: B1 VH with P30R, A31E, L55I, F108L
VL: B1 VL
B3: MAB17-IgG4 (antibody, V domains shown)
VH: B1 VH with M34I, F108L
VL: B1 VL
B4: MAB15-IgG4 (antibody, V domains shown)
VH: B1 VH with P30R, A31E, L55I
VL: B1 VL
B5: MAB13-IgG4 (antibody, V domains shown)
VH: B1 VH with P30G, A31N, R62Q
VL: B1 VL
B6: MAB14-IgG4 (antibody, V domains shown)
VH: B1 VH with R62Q
VL: B1 VL
B7: MAB19-IgG4 (antibody, V domains shown)
VH: QVQLVQSGAEVKKPGASVKVSCKASGYTFTSHYMGWVRQAPGQGLEWMGVINPSMGATSYAQKFQGRVTMTRDTSTSTVYMELSSLRSEDTAVYYCARLHVSGSYYPAYLDYWGQGTMVTVSS
VL: EIVMTQSPATLSVSPGERATLSCRASQSVSSNLAWYQQKPGQAPRHLIYGASTRATGIPARFSGSGSGTEFTLTISSLQSEDFAVYYCQQYIVFPWTFGGGTKVEIKR
B8: MAB21-IgG4 (antibody, V domains shown)
VH: B7 VH with V50I, A61T, Q65R
VL: B7 VL
B9: MAB20-IgG4 (antibody, V domains shown)
VH: B7 VH with M48V, V50I
VL: B7 VL
B10: SEC1 (format not stated) (antibody, V domains shown)
VH: EVQLVESGGGLTQPGKSLKLSCEASGFTFSSFTMHWVRQSPGKGLEWVAFIRSGSGIVFYADAVRGRFTISRDNAKNLLFLQMNDLKSEDTAMYYCARRPLGHNTFDSWGQGTLVTVSS
VL: DIVMTQSPSSLAVSPGEKVTMTCKSSQSLYYSGVKENLLAWYQQKPGQSPKLLIYYASIRFTGVPDRFTGSGSGTDYTLTITSVQAEDMGQYFCQQGINNPLTFGDGTKLEIK

Numbering of substitutions follows the chain as printed.

The target in the first assay is T1, human TIGIT on the cell surface. In words: cell-based or functional assay.
Take B1: the “Average EC50, IL-2 production, human TIGIT Jurkat/anti-CD3 HT-1080 co-culture assay” value was 0.25 nM.

Take B2: the “Average EC50, IL-2 production, human TIGIT Jurkat/anti-CD3 HT-1080 co-culture assay” value was found to be 1.11 nM.

In the case of B3, the “Average EC50, IL-2 production, human TIGIT Jurkat/anti-CD3 HT-1080 co-culture assay” value came to 0.13 nM.

Regarding B4, the “Average EC50, IL-2 production, human TIGIT Jurkat/anti-CD3 HT-1080 co-culture assay” value is 0.21 nM.

Turning to B5, the “Average EC50, IL-2 production, human TIGIT Jurkat/anti-CD3 HT-1080 co-culture assay” value came to 1.4 nM.

As to B6, the “Average EC50, IL-2 production, human TIGIT Jurkat/anti-CD3 HT-1080 co-culture assay” value came to 0.71 nM.

Regarding B7, the “Average EC50, IL-2 production, human TIGIT Jurkat/anti-CD3 HT-1080 co-culture assay” value came to 0.2 nM.

For B8, the “Average EC50, IL-2 production, human TIGIT Jurkat/anti-CD3 HT-1080 co-culture assay” value turned out to be 0.61 nM.

Turning to B9, the “Average EC50, IL-2 production, human TIGIT Jurkat/anti-CD3 HT-1080 co-culture assay” value is 0.68 nM.

For B10, the “Average EC50, IL-2 production, human TIGIT Jurkat/anti-CD3 HT-1080 co-culture assay” value amounted to 8.46 nM.

The next assay has as its target T2, human PVRL4-His. In words: BLI, antibody on AHC sensor, human PVRL4-His in solution. On the procedure:
The BLI analysis was performed at 30° C. using 1× kinetics buffer as assay buffer. AHC sensors were first presoaked in assay buffer for greater than 5 minutes. Antibody (5 μg/mL) was captured on the sensor for 300 seconds. Sensors were then dipped in assay buffer for 120 seconds to establish a baseline before measuring binding to human PVRL4-His protein. Sensors were then dipped into human PVRL4-His (200 nM in assay buffer) for 200 seconds to measure association. Dissociation of PVRL4 was then measured by dipping sensors into assay buffer for 200 seconds. Results were analyzed using Octet® Data Analysis Software Version 8.2.0.7.
(In BLI a coated tip is dipped into the sample, and binding shifts an interference pattern.)
Consider B1, for which the binding result is recorded as “no binding (tested: 200 nM)”.

As to B2, the binding result was “no binding (tested: 200 nM)”.

As for B3, the binding result was “no binding (tested: 200 nM)”.

For B4, the binding result is “no binding (tested: 200 nM)”.

B5: the binding result is “no binding (tested: 200 nM)”.

Consider B6, for which the binding result is reported as “no binding (tested: 200 nM)”.

Take B7: the binding result is listed as “no binding (tested: 200 nM)”.

Consider B8, for which the binding result is “no binding (tested: 200 nM)”.

For B9, the binding result was “no binding (tested: 200 nM)”.

The target of a further assay is T3, recombinant monomeric human TIGIT-His. The assay is described as follows: MSD-SET solution equilibrium titration, monomeric antigen. On the procedure: See Estep et al., supra, incorporated by reference in its entirety. Briefly, solution equilibrium titrations (SET) were performed in PBS+0.1% IgG-Free BSA (PBSF) with antigen (TIGIT monomer) held constant at 10-100 pM and incubated with 3- to 5-fold serial dilutions of Fab or mAbs starting at 10 pM-10 nM. Antibodies (20 nM in PBS) were coated onto standard bind MSD-ECL plates overnight at 4° C. or at room temperature for 30 min. Plates were then blocked by BSA for 30 min with shaking at 700 rpm, followed by three washes with wash buffer (PBSF+0.05% Tween 20). SET samples were applied and incubated on the plates for 150s with shaking at 700 rpm followed by one wash. Antigen captured on a plate was detected with 250 ng/mL sulfotag-labeled streptavidin in PBSF by incubation on the plate for 3 min. The plates were washed three times with wash buffer and then read on the MSD Sector Imager 2400 instrument using 1× Read Buffer T with surfactant. The percent free antigen was plotted as a function of titrated antibody in Prism and fit to a quadratic equation to extract the KD. To improve throughput, liquid handling robots were used throughout MSD-SET experiments, including SET sample preparation.
Turning to B2, the Kd – broadly, the constant that tells how readily two partners part at equilibrium – turned out to be 0.07 nM.

On to B3, for which the Kd was 0.041 nM.

Regarding B4, the Kd stood at 0.21 nM.

Take B5: the Kd stood at 0.4 nM.

Regarding B6, the Kd was found to be 0.38 nM.

For the molecule B8, the Kd turned out to be 0.08 nM.

Turning to B9, the Kd was determined as 0.03 nM.

A further assay shares this target. The assay is described as follows: BLI (ForteBio), IgG on AHQ sensor, 100 nM monomeric antigen, 1:1 model. Here is the method: (§1) Quantitative binding of antibodies to recombinant monomeric human, mouse (SEQ ID NO: 3), cynomolgus monkey TIGIT was measured using biolayer interferometry (BLI) with a FORTEBIO®. […] FORTEBIO affinity measurements were performed by loading IgGs on-line onto AHQ sensors. Sensors were equilibrated off-line in assay buffer for 30 min and then monitored on-line for 60 seconds for baseline establishment. Sensors with loaded IgGs were exposed to a single concentration of antigen (100 nM) for 3 minutes. Afterwards they were transferred to assay buffer for 3 minutes for off-rate measurement. Kinetics were analyzed using the 1:1 binding model.
In the case of B1, the Kd turned out to be 0.448 nM.

Regarding B2, the Kd is 0.378 nM.

For B3, the dissociation constant (Kd) was found to be 0.429 nM.

Regarding B4, the Kd was 0.526 nM.

Consider B5, for which the Kd was determined as 1.44 nM.

Turning to B6, the Kd is 1.23 nM.

In the next assay the target is T4, recombinant monomeric cynomolgus monkey TIGIT-His (cynomolgus monkey).
T4 construct: also called Cyno TIGIT His; cTIGIT; not shown: His tag
T4 sequence (chain, as listed by the source limits assumed): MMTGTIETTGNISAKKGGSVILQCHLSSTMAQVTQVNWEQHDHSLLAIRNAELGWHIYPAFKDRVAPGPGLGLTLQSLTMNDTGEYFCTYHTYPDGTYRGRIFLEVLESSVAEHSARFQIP
Described as above. On the procedure: as §1
On to B1, for which the Kd was 72 nM.

With B2, the Kd came to 70.4 nM.

B3: the Kd worked out at 110 nM.

For B4, the Kd came to 79.4 nM.

The target in another assay is T1, human TIGIT on the cell surface. In words: flow cytometry, antibody titrated against labeled PVR-Fc binding to human TIGIT Jurkat cells. Here is the method:
(§2) Quantitative ligand blocking studies were conducted by using a cell surface TIGIT binding assay.
On the technique in general: In flow cytometry, cells or beads pass a laser one at a time.
For the molecule B1, the IC50 (in general, the concentration needed to halve the response being measured) was found to be 1.8 nM.

As for B2, the IC50 was determined as 2.1 nM.

Take B3: the IC50 is 2.6 nM.

Molecule B4 returned an IC50 of 2.2 nM.

B5: the IC50 amounted to 2.1 nM.

Consider B6, for which the IC50 is 2.6 nM.

B7: the IC50 was determined as 6.4 nM.

In turn, B8 showed an IC50 of 1 nM.

B9 gave an IC50 of 2.3 nM.

The target is the same in a further assay. The assay is described as follows: flow cytometry, antibody titrated against labeled PVRL2-Fc binding to human TIGIT Jurkat cells. Here is the method:
as §2
B1: the IC50 was found to be 1.9 nM.

The molecule B2 gave an IC50 of 1.3 nM.

The molecule B3 had an IC50 of 1.9 nM.

In the case of B4, the IC50 was found to be 1.1 nM.

B5 had an IC50 of 1.8 nM.

On to B6, for which the IC50 came to 1.6 nM.

In the case of B7, the IC50 is 2 nM.

B8: the IC50 is 0.8 nM.

For the molecule B9, the IC50 is 1.9 nM.

For the next assay, the target named is T3, recombinant monomeric human TIGIT-His. The assay is described as follows: BLI (Octet QKe), antibody on AHC sensor, several concentrations of human TIGIT-His, 1:1 global fit, average. On the procedure:
A strategy of capturing anti-TIGIT antibodies on sensors following association/dissociation of monomeric TIGIT proteins was used to avoid avidity effects in the assay. The BLI analysis was performed at 29° C. using 1× kinetics buffer (ForteBio) as assay buffer. Anti-human IgG Fc capture (AHC) biosensors (ForteBio) were first presoaked in assay buffer for over five minutes. Anti-TIGIT antibody (5 μg/mL) was captured on the sensor for 300 seconds. Sensors were then dipped in assay buffer for 120 seconds to establish a baseline before measuring binding to each TIGIT protein. […] Dissociation of TIGIT was measured by dipping the sensors into assay buffer for 600, 1200, or 1800 seconds, depending on the experiment (600 seconds was only used for mouse TIGIT-His). Agitation at all steps was 1000 rpm.
Kinetic parameters were generated with Octet® Data Analysis Software Version 8.2.0.7 using reference subtraction, dissociation based inter-step correction, 1-to-1 binding model, and global fit (Rₘₐₓ unlinked by sensor).
On to B1, for which the Kd turned out to be 0.81 nM; the koff (as a rule, a measure of how fast the partners let go of each other) amounted to 0.00059 s⁻¹; the kon (in general, the second-order rate constant of association) is 750000 M⁻¹ s⁻¹.

Take B2: the Kd was 1.1 nM, the koff was found to be 0.00035 s⁻¹ and the kon is 450000 M⁻¹ s⁻¹.

Consider B4, for which the Kd came out at 0.58 nM, the koff came to 0.00066 s⁻¹ and the kon is 1.1e+06 M⁻¹ s⁻¹.

Regarding B8, the Kd was 0.36 nM, the koff worked out at 0.0005 s⁻¹ and the kon worked out at 1.4e+06 M⁻¹ s⁻¹.

With B9, the Kd amounted to 0.46 nM, the koff came out at 0.00038 s⁻¹ and the kon stood at 890000 M⁻¹ s⁻¹.
